Where a chain is given by its changes, count along the chain named.
T1: C5aR expressed on purified human neutrophils (human, UniProt P21730 1-350)
T1 construct: whole, on cells; Used here for all assays on primary human cells (purified neutrophils, granulocytes and monocytes in whole blood, monocyte-derived macrophages); also called human C5aR expressed endogenously; C5aR on human granulocytes, monocytes and macrophages
T1 sequence (looked up): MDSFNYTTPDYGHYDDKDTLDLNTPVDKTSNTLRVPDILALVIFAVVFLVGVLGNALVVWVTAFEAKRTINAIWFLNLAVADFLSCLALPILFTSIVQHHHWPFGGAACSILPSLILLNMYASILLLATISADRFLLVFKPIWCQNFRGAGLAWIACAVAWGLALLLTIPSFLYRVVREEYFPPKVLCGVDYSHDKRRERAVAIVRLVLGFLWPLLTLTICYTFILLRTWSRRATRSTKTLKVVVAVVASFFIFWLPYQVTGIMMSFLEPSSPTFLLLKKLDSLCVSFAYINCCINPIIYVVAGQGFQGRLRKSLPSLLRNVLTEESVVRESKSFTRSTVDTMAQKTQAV

T2: full-length human FPR1 expressed on CHO Flp-In cells (human, UniProt P21462 1-350)
T2 construct: also called fMet-Leu-Phe receptor
T2 chain: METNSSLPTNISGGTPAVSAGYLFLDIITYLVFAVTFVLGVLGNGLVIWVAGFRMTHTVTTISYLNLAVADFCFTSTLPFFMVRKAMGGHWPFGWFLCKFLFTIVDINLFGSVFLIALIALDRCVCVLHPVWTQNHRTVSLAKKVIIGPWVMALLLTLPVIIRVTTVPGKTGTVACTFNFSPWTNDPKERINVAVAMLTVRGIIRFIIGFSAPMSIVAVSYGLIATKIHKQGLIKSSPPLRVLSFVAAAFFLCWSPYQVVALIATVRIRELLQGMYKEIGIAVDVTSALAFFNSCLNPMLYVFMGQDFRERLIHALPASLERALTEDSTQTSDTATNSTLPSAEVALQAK

T3: human C5aR_NT-bio peptide (human, biotin tag (position not given))
T3 construct: Chemically synthesized linear peptide (Genscript); also called human C5aR N-terminal peptide; human C5aR peptide
T3 peptide: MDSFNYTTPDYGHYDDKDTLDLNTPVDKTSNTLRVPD

T4: Mouse FcRn p51 [1-297]/AviHis/p14 biotinylated (mouse, UniProt Q61559 22-298; P01887 21-119, biotinylated in vitro with BirA (Avi tag))
T4 construct: Heterodimer; UniProt Q61559 (p51); also called Murine FcRn
T4 chain 1: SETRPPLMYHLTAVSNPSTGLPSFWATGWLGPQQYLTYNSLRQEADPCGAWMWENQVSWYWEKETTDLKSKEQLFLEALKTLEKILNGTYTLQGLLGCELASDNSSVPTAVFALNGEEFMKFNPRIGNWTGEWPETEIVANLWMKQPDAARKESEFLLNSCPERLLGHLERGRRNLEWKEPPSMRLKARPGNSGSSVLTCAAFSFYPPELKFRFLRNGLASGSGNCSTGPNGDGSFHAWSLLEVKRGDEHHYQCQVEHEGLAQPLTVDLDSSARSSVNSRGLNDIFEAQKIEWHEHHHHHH
T4 chain 2: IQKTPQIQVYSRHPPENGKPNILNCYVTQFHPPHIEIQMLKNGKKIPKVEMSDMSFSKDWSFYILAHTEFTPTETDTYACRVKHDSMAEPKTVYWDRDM

T5: Rat FcRn p51 [1-298]/AviHis/p14 biotinylated (rat, UniProt P13599 23-299; P07151 21-119, biotinylated in vitro with BirA (Avi tag))
T5 construct: Heterodimer; UniProt P13599 (p51)
T5 sequence 1: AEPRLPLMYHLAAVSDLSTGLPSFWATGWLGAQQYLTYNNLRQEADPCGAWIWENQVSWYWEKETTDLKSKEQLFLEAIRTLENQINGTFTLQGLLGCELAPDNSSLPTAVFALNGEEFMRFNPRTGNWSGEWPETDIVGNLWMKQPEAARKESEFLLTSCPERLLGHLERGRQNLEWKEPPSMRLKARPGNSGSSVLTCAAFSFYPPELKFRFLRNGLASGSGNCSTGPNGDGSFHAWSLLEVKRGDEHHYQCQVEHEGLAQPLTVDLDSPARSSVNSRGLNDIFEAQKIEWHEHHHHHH
T5 sequence 2: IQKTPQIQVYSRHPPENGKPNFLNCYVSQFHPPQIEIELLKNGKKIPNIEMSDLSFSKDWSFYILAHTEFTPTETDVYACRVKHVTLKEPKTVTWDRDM

T6: cynomolgus C5aR_NT-bio peptide (cynomolgus monkey, biotin tag (position not given))
T6 construct: Chemically synthesized linear peptide (Genscript); also called cynomolgus C5aR N-terminal peptide; cynomolgus C5aR peptide
T6 peptide: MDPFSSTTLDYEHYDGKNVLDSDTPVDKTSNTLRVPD

B1: MAB #2 (antibody, human IgG1, lambda)
heavy: EVQLVESGGGLVKPGGSLRLSCAASGFTFSSYAMHWVRQAPGKGLEWVGRIKSVAQGGTTDYAAHVKGRFTISRDDSKNTLYLQMNSLKTEDTAVYYCARVSHSTFDVWGQGTLVTVSSASTKGPSVFPLAPSSKSTSGGTAALGCLVKDYFPEPVTVSWNSGALTSGVHTFPAVLQSSGLYSLSSVVTVPSSSLGTQTYICNVNHKPSNTKVDKRVEPKSCDKTHTCPPCPAPEAEGAPSVFLFPPKPKDTLMISRTPEVTCVVVDVSHEDPEVKFNWYVDGVEVHNAKTKPREEQYNSTYRVVSVLTVLHQDWLNGKEYKCKVSNKALPSSIEKTISKAKGQPREPQVYTLPPSREEMTKNQVSLTCLVKGFYPSDIAVEWESNGQPENNYKTTPPVLDSDGSFFLYSKLTVDKSRWQQGNVFSCSVMHEALHNHYTQKSLSLSPGK
light: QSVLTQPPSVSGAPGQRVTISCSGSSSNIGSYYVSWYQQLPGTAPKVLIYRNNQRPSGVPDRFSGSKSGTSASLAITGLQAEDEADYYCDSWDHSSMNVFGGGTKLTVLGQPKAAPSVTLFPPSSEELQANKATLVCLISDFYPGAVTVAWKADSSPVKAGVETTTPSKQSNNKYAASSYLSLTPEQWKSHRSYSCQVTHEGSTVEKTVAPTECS
notes: lambda 1 light chain
B2: MAB #1 (antibody, human IgG1, lambda)
heavy: B1 heavy with V54K, H103F
light: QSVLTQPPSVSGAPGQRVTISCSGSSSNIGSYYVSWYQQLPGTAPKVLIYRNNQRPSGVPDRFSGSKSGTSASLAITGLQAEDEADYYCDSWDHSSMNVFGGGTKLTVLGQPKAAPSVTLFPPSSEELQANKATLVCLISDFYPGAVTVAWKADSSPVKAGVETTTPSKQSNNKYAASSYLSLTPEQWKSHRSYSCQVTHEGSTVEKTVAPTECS
notes: lambda 1 light chain, VH3-15 framework

How the values were obtained:
[1] = biological target: T1, C5aR expressed on purified human …; assay: FACS on purified human neutrophils, IgG titration
Procedure: Neutrophils were purified from EDTA-whole blood samples using a MACSexpress® Neutrophil Isolation Cocktail from Miltenyi Biotec. Briefly, using this kit, cells are isolated using magnetic labeling and negative magnetic separation. […] Measurements were done at the FACS Array device. FACS data were evaluated using FlowJo™, entered into GraphPad® Prism (v4.0) and fitted to the sigmoidal dose-response curve using non-linear regression to calculate the EC50.

[2] = biological target: T7, full-length human C5L2 expressed on CHO Flp-In cells (human, UniProt Q9P296 1-337); assay: FACS, CHO Flp-In cells expressing human C5L2, single IgG concentration
T7 construct: also called C5a anaphylatoxin chemotactic receptor 2

[3] = biological target: T2, full-length human FPR1 expressed on CHO …; assay: FACS, CHO Flp-In cells expressing human FPR1, single IgG concentration
[4] = biological target: T8, Human C1q (human, UniProt P02745 23-245; P02746 28-253; P02747 29-245); assay: BLI (Octet), IgG captured via anti-hu Fab CH1 kappa/lambda on SA sensors, C1q titrated
T8 construct: mature; Plasma-derived complex; also called C1q protein; huC1q
Source text: 2.0 nm of IgGs diluted in Octet® buffer were captured onto anti-hu Fab CH1 kappa/lambda (BAC) immobilised onto streptavidin (SA) sensors (FortéBIO, Pall Life Sciences). […] All sensorgrams were fitted using Data Analysis Software 9 (FortéBIO, Pall Life Sciences) to determine the apparent affinity. The data was fitted with a steady state model.

[5] = biological target: T3, human C5aR_NT-bio peptide; assay: SPR (Biacore T200), IgG captured on anti-human-Fc, peptide as analyte, 1:1 fit, monovalent
[6] = biological target: T4, Mouse FcRn p51 [1-297]/AviHis/p14 …; assay: BLI (Octet HTX), biotinylated FcRn on SA sensors, IgG titrated, steady state fit, apparent KD, pH 6.0
Source text: (§1) 0.5 nm of biotinylated human, cynomolgus, mouse and rat FcRn were captured on streptavidin (SA) sensors (FortéBIO, Pall Life Sciences). […] All sensorgrams were fitted using Data Analysis Software 10.0 (FortéBIO, Pall Life Sciences) to determine the apparent affinity and the data was fitted with a steady state model.

[7] = biological target: T5, Rat FcRn p51 [1-298]/AviHis/p14 …; assay: as above
Source text: as §1

[8] = biological target: T9, Human FcRn p51 [1-297]/AviHis/p14 biotinylated (human, UniProt P55899 24-298; P16213 21-119); assay: BLI (Octet HTX), biotinylated FcRn on SA sensors, IgG titrated, steady state fit, apparent KD, pH 6.0; * deviation from fit model; pH 6.0
T9 construct: Heterodimer of two polypeptides; UniProt P55899 (p51), P61769 (p14) printed
Source text: as §1

[9] = biological target: T6, cynomolgus C5aR_NT-bio peptide; assay: SPR (Biacore T200), IgG captured on anti-human-Fc, peptide as analyte, 1:1 fit, monovalent; value marked * (for ranking purposes; fast kon, fast koff)

T8 sequence (P02745 23-245, chain 1 of 3): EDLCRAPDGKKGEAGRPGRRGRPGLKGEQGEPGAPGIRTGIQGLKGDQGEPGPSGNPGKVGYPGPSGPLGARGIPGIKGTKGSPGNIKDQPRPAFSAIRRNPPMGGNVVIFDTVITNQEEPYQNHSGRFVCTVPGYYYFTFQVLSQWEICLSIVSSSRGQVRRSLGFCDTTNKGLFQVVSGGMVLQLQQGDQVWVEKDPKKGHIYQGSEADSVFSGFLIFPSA
T8 sequence (P02746 28-253, chain 2 of 3): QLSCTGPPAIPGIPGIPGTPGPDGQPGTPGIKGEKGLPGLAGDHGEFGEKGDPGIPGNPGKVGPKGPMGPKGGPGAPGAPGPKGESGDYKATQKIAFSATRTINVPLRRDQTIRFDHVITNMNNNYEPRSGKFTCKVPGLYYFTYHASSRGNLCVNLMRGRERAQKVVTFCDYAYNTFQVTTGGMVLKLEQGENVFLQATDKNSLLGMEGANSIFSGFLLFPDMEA
T8 sequence (P02747 29-245, chain 3 of 3): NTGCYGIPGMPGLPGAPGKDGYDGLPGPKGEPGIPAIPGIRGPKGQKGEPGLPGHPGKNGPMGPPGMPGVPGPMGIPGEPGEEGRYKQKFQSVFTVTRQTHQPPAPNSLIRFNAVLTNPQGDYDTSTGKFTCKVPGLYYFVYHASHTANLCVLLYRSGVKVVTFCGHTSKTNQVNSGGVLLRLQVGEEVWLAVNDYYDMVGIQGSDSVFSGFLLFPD
T9 sequence (P55899 other isoform, or with tags, fused parts or gaps limits assumed, chain 1 of 2): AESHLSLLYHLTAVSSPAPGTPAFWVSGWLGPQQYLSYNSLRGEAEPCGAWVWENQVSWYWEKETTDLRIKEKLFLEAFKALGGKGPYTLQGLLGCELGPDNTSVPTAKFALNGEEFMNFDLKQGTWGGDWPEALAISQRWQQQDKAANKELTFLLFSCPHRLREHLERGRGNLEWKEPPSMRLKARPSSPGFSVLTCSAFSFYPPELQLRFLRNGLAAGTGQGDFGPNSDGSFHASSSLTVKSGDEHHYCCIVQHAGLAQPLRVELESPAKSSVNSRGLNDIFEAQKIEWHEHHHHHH
T9 sequence (P16213 21-119 limits assumed, chain 2 of 2): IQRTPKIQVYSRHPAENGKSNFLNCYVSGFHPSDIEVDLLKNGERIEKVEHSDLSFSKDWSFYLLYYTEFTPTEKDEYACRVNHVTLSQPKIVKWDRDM
T7 sequence (Q9P296 whole entry): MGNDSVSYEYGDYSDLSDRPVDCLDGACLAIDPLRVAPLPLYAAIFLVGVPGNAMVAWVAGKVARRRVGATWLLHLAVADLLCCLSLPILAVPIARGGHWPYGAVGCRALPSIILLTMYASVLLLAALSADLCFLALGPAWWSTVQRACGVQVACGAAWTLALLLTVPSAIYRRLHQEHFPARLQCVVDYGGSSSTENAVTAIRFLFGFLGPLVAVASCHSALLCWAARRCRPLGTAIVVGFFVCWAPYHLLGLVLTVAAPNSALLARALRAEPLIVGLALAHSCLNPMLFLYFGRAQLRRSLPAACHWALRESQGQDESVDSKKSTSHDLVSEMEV

Binder | EC50 [1] [nM] | binding result [2] | binding result [3] | binding result [4] | Kd [5] [nM] | koff [5] [s⁻¹] | kon [5] [M⁻¹ s⁻¹] | Kd [6] [nM] | Kd [7] [nM] | Kd [8] [nM] | Kd [9] [nM] | koff [9] [s⁻¹] | kon [9] [M⁻¹ s⁻¹]
B1 | 5.4 | no binding (tested: 300 nM) | no binding (tested: 300 nM) | no binding (tested: 500 nM (highest C1q concentration)) | 29 | 0.00127 | 43300 | 7.3 | 10 | 36 | 34000 | 0.145 | 4290
B2 | 6 | no binding (tested: 300 nM) | no binding (tested: 300 nM) | no binding (tested: 500 nM (highest C1q concentration)) | 36 | 0.00179 | 50100 | 4.3 | 5.7 | 9 | 8200 | 0.111 | 13600

— patent US20240400657A1 (MorphoSys, published 2024)
